Test results: publication PMC6065307, “Structural dynamics of the transaminase active site revealed by the crystal structure of a co-factor free omega-transaminase from Vibrio fluvialis JS17” (Scientific Reports, 2018)

Target: the molecule itself
Assay: SEC-MALS; Superdex 200 HR 10/30 coupled to MALS and refractive index detectors; 20 mM Tris-HCl pH 8.0, 150 mM NaCl; measured mass 103.72 kDa against 52.79 kDa theoretical monomer

B1: ω-transaminase from Vibrio fluvialis JS17 (Vfat), apo (cofactor-free) form (enzyme, UniProt F2XBU9 1-453, looked up)
chain: MNKPQSWEARAETYSLYGFTDMPSLHQRGTVVVTHGEGPYIVDVNGRRYLDANSGLWNMVAGFDHKGLIDAAKAQYERFPGYHAFFGRMSDQTVMLSEKLVEVSPFDSGRVFYTNSGSEANDTMVKMLWFLHAAEGKPQKRKILTRWNAYHGVTAVSASMTGKPYNSVFGLPLPGFVHLTCPHYWRYGEEGETEEQFVARLARELEETIQREGADTIAGFFAEPVMGAGGVIPPAKGYFQAILPILRKYDIPVISDEVICGFGRTGNTWGCVTYDFTPDAIISSKNLTAGFFPMGAVILGPELSKRLETAIEAIEEFPHGFTASGHPVGCAIALKAIDVVMNEGLAENVRRLAPRFEERLKHIAERPNIGEYRGIGFMWALEAVKDKASKTPFDGNLSVSERIANTCTDLGLICRPLGQSVVLCPPFILTEAQMDEMFDKLEKALDKVFAEVA
notes: ω-transaminase (amine:pyruvate transaminase) from Vibrio fluvialis JS17; 'the coding region of Vfat' cloned into pET24ma; theoretical mass with the His-tag 52.79 kDa; Homodimer by MALS and in the crystal; also called apo Vfat; amine:pyruvate transaminase; source: E. coli BL21 (DE3), purified (Ni-NTA, Superdex 200 gel filtration); not shown: His-tag, C-terminal, kept
stoichiometry N: 2
